Source: patent publication US20250066503A1, “CELL INJURY INDUCING THERAPEUTIC DRUG FOR USE IN CANCER THERAPY” (CHUGAI SEIYAKU KABUSHIKI KAISHA, priority 2016, published 2025)
Residue numbers refer to the chain shown, from its start.

B1: TR01H061-E22Hh/none-Hi-Kn010G3/L0222-k0 (antibody, V domains shown)
VH: QVQLVESGGGLVQPGRSLRLSCAASGFTFSNAWMHWVRQAPGKGLEWVAQIKDKSQNYATYYAESVKGRFTISRADSKNSIYLQMNSLKTEDTAVYYCRYVHYAASYGVDIWGQGTTVTVSS
VL: DIVMTQSPLSLPVTPGEPASISCRSSQSPVHSNRNTYIQWYQQKPGQAPRLLIYKVSNRFSGVPDRFSGSGSGTDFTLKISRVEAEDVGVYYCYQGTQVPYTFGQGTKLEIKR
notes: one-arm
B2: TR01H091-E2702GsKsc/none-Hi-E2704sE/L0011-k0 (antibody, V domains shown)
VH: B1 VH with R19K, A75D, I81L, S106G, I111A
VL: B1 VL with S28P, P29L, I38L, Q39H, Y94G
notes: one-arm
B3: TR01H082-E22Hh/none-Hi-Kn010G3/L0201-k0 (antibody, V domains shown)
VH: B1 VH with A75D, I81L, S106G, I111A
VL: B1 VL with S28P, I38L, Q39H, Y94G
notes: one-arm
B4: TR01H084-E22Hh/none-Hi-Kn010G3/L0000-k0 (antibody, V domains shown)
VH: B1 VH with L11V, R16G, S106G
VL: B1 VL with P29L, I38L, Q39H, Y94G
notes: one-arm
B5: TR01H082-E22Hh/none-Hi-Kn010G3/L0222-k0 (antibody, V domains shown)
VH: B1 VH with A75D, I81L, S106G, I111A
VL: B1 VL
notes: one-arm
B6: TR01H083-E22Hh/none-Hi-Kn010G3/L0212-k0 (antibody, V domains shown)
VH: B1 VH with Q56N, S106G
VL: B1 VL with S25P, I38L, Q39H
notes: one-arm
B7: TR01H076-E22Hh/none-Hi-Kn010G3/L0000-k0 (antibody, V domains shown)
VH: B1 VH with L11V, R16G, I111Y
VL: B1 VL with P29L, I38L, Q39H, Y94G
notes: one-arm
B8: TR01H082-E22Hh/none-Hi-Kn010G3/L0203-k0 (antibody, V domains shown)
VH: B1 VH with A75D, I81L, S106G, I111A
VL: B1 VL with Q39H, Y94G
notes: one-arm
B9: TR01H081-E22Hh/none-Hi-Kn010G3/L0000-k0 (antibody, V domains shown)
VH: B1 VH with S106G
VL: B1 VL with P29L, I38L, Q39H, Y94G
notes: one-arm
B10: TR01H081-E22Hh/none-Hi-Kn010G3/L0011-k0 (antibody, V domains shown)
VH: B1 VH with S106G
VL: B1 VL with S28P, P29L, I38L, Q39H, Y94G
notes: one-arm
B11: TR01H082-E22Hh/none-Hi-Kn010G3/L0000-k0 (antibody, V domains shown)
VH: B1 VH with A75D, I81L, S106G, I111A
VL: B1 VL with P29L, I38L, Q39H, Y94G
notes: one-arm
B12: TR01H098-E22Hh/none-Hi-Kn010G3/L0011-k0 (antibody, V domains shown)
VH: B1 VH with T60P, A75D, I81L, S106G, I111A
VL: B1 VL with S28P, P29L, I38L, Q39H, Y94G
notes: one-arm
B13: TR01H097-E22Hh/none-Hi-Kn010G3/L0011-k0 (antibody, V domains shown)
VH: B1 VH with T60L, A75D, I81L, S106G, I111A
VL: B1 VL with S28P, P29L, I38L, Q39H, Y94G
notes: one-arm
B14: TR01H070-E22Hh/none-Hi-Kn010G3/L0000-k0 (antibody, V domains shown)
VH: B1 VH with L11V, R16G, A75D, I81L, I111Y
VL: B1 VL with P29L, I38L, Q39H, Y94G
notes: one-arm
B15: TR01H083-E22Hh/none-Hi-Kn010G3/L0201-k0 (antibody, V domains shown)
VH: B1 VH with Q56N, S106G
VL: B1 VL with S28P, I38L, Q39H, Y94G
notes: one-arm
B16: TR01H068-E22Hh/none-Hi-Kn010G3/L0000-k0 (antibody, V domains shown)
VH: B1 VH with L11V, R16G, A75D, I81L, I111A
VL: B1 VL with P29L, I38L, Q39H, Y94G
notes: one-arm
B17: TR01H064-E22Hh/none-Hi-Kn010G3/L0000-k0 (antibody, V domains shown)
VH: B1 VH with A23S, I111A
VL: B1 VL with P29L, I38L, Q39H, Y94G
notes: one-arm
B18: TR01H093-E22Hh/none-Hi-Kn010G3/L0011-k0 (antibody, V domains shown)
VH: B1 VH with K67Q, A75D, I81L, S106G, I111A
VL: B1 VL with S28P, P29L, I38L, Q39H, Y94G
notes: one-arm
B19: TR01H067-E22Hh/none-Hi-Kn010G3/L0011-k0 (antibody, V domains shown)
VH: B1 VH with A75D, I81L, I111A
VL: B1 VL with S28P, P29L, I38L, Q39H, Y94G
notes: one-arm
B20: TR01H084-E22Hh/none-Hi-Kn010G3/L0011-k0 (antibody, V domains shown)
VH: B1 VH with L11V, R16G, S106G
VL: B1 VL with S28P, P29L, I38L, Q39H, Y94G
notes: one-arm
B21: TR01H092-E22Hh/none-Hi-Kn010G3/L0011-k0 (antibody, V domains shown)
VH: B1 VH with K67A, A75D, I81L, S106G, I111A
VL: B1 VL with S28P, P29L, I38L, Q39H, Y94G
notes: one-arm
B22: TR01H083-E22Hh/none-Hi-Kn010G3/L0011-k0 (antibody, V domains shown)
VH: B1 VH with Q56N, S106G
VL: B1 VL with S28P, P29L, I38L, Q39H, Y94G
notes: one-arm
B23: TR01H067-E22Hh/none-Hi-Kn010G3/L0201-k0 (antibody, V domains shown)
VH: B1 VH with A75D, I81L, I111A
VL: B1 VL with S28P, I38L, Q39H, Y94G
notes: one-arm
B24: TR01H083-E22Hh/none-Hi-Kn010G3/L0000-k0 (antibody, V domains shown)
VH: B1 VH with Q56N, S106G
VL: B1 VL with P29L, I38L, Q39H, Y94G
notes: one-arm
B25: TR01H073-E22Hh/none-Hi-Kn010G3/L0000-k0 (antibody, V domains shown)
VH: B1 VH with A75D, I81L
VL: B1 VL with P29L, I38L, Q39H, Y94G
notes: one-arm
B26: TR01H067-E22Hh/none-Hi-Kn010G3/L0000-k0 (antibody, V domains shown)
VH: B1 VH with A75D, I81L, I111A
VL: B1 VL with P29L, I38L, Q39H, Y94G
notes: one-arm
B27: TR01H065-E22Hh/none-Hi-Kn010G3/L0000-k0 (antibody, V domains shown)
VH: B1 VH with A75D, I111A
VL: B1 VL with P29L, I38L, Q39H, Y94G
notes: one-arm
B28: TR01H084-E22Hh/none-Hi-Kn010G3/L0201-k0 (antibody, V domains shown)
VH: B1 VH with L11V, R16G, S106G
VL: B1 VL with S28P, I38L, Q39H, Y94G
notes: one-arm
B29: TR01H094-E22Hh/none-Hi-Kn010G3/L0011-k0 (antibody, V domains shown)
VH: B1 VH with K67S, A75D, I81L, S106G, I111A
VL: B1 VL with S28P, P29L, I38L, Q39H, Y94G
notes: one-arm
B30: TR01H082-E22Hh/none-Hi-Kn010G3/L0011-k0 (antibody, V domains shown)
VH: B1 VH with A75D, I81L, S106G, I111A
VL: B1 VL with S28P, P29L, I38L, Q39H, Y94G
notes: one-arm
B31: TR01H072-E22Hh/none-Hi-Kn010G3/L0000-k0 (antibody, V domains shown)
VH: B1 VH
VL: B1 VL with P29L, I38L, Q39H, Y94G
notes: one-arm
B32: TR01H082-E22Hh/none-Hi-Kn010G3/L0212-k0 (antibody, V domains shown)
VH: B1 VH with A75D, I81L, S106G, I111A
VL: B1 VL with S25P, I38L, Q39H
notes: one-arm
B33: TR01H099-E22Hh/none-Hi-Kn010G3/L0011-k0 (antibody, V domains shown)
VH: B1 VH with T60Q, A75D, I81L, S106G, I111A
VL: B1 VL with S28P, P29L, I38L, Q39H, Y94G
notes: one-arm
B34: TR01H074-E22Hh/none-Hi-Kn010G3/L0000-k0 (antibody, V domains shown)
VH: B1 VH with L11V, R16G
VL: B1 VL with P29L, I38L, Q39H, Y94G
notes: one-arm
B35: TR01H071-E22Hh/none-Hi-Kn010G3/L0000-k0 (antibody, V domains shown)
VH: B1 VH with Q56N
VL: B1 VL with P29L, I38L, Q39H, Y94G
notes: one-arm
B36: TR01H095-E22Hh/none-Hi-Kn010G3/L0011-k0 (antibody, V domains shown)
VH: B1 VH with T60F, A75D, I81L, S106G, I111A
VL: B1 VL with S28P, P29L, I38L, Q39H, Y94G
notes: one-arm
B37: TR01H091-E22Hh/none-Hi-Kn010G3/L0011-k0 (antibody, V domains shown)
VH: B1 VH with R19K, A75D, I81L, S106G, I111A
VL: B1 VL with S28P, P29L, I38L, Q39H, Y94G
notes: one-arm
B38: TR01H066-E22Hh/none-Hi-Kn010G3/L0000-k0 (antibody, V domains shown)
VH: B1 VH with I81L, I111A
VL: B1 VL with P29L, I38L, Q39H, Y94G
notes: one-arm
B39: TR01H081-E22Hh/none-Hi-Kn010G3/L0201-k0 (antibody, V domains shown)
VH: B1 VH with S106G
VL: B1 VL with S28P, I38L, Q39H, Y94G
notes: one-arm
B40: TR01H069-E22Hh/none-Hi-Kn010G3/L0000-k0 (antibody, V domains shown)
VH: B1 VH with L11V, R16G, A75D, I81L
VL: B1 VL with P29L, I38L, Q39H, Y94G
notes: one-arm
B41: TR01H063-E22Hh/none-Hi-Kn010G3/L0000-k0 (antibody, V domains shown)
VH: B1 VH with L11V, R16G, I111A
VL: B1 VL with P29L, I38L, Q39H, Y94G
notes: one-arm
B42: TR01H096-E22Hh/none-Hi-Kn010G3/L0011-k0 (antibody, V domains shown)
VH: B1 VH with T60G, A75D, I81L, S106G, I111A
VL: B1 VL with S28P, P29L, I38L, Q39H, Y94G
notes: one-arm
B43: TR01H071-E22Hh/none-Hi-Kn010G3/L0222-k0 (antibody, V domains shown)
VH: B1 VH with Q56N
VL: B1 VL
notes: one-arm
B44: TR01H075-E22Hh/none-Hi-Kn010G3/L0000-k0 (antibody, V domains shown)
VH: B1 VH with A75D, I81L, I111Y
VL: B1 VL with P29L, I38L, Q39H, Y94G
notes: one-arm
B45: TR01H090-E22Hh/none-Hi-Kn010G3/L0011-k0 (antibody, V domains shown)
VH: B1 VH with R16G, A75D, I81L, S106G, I111A
VL: B1 VL with S28P, P29L, I38L, Q39H, Y94G
notes: one-arm
B46: TR01H083-E22Hh/none-Hi-Kn010G3/L0222-k0 (antibody, V domains shown)
VH: B1 VH with Q56N, S106G
VL: B1 VL
notes: one-arm
B47: TR01H067-E22Hh/none-Hi-Kn010G3/L0212-k0 (antibody, V domains shown)
VH: B1 VH with A75D, I81L, I111A
VL: B1 VL with S25P, I38L, Q39H
notes: one-arm
B48: TR01H067-E22Hh/none-Hi-Kn010G3/L0222-k0 (antibody, V domains shown)
VH: B1 VH with A75D, I81L, I111A
VL: B1 VL
notes: one-arm
B49: TR01H067-E22Hh/none-Hi-Kn010G3/L0203-k0 (antibody, V domains shown)
VH: B1 VH with A75D, I81L, I111A
VL: B1 VL with Q39H, Y94G
notes: one-arm

molecular target: T1, soluble human CD3 epsilon chain (human, UniProt P07766 23-126); assay: SPR
T1 construct: also called CD3ε
T1 sequence (P07766 23-126 limits assumed): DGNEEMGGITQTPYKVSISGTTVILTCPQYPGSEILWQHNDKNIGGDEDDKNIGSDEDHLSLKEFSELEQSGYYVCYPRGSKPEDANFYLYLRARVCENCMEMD

Row | Kd [nM] | Binder
1 | 18.8 | B1
2 | 13.9 | B2
3 | 44.9 | B3
4 | 21.3 | B4
5 | 101 | B5
6 | 0.0586 | B6
7 | 47.8 | B7
8 | 40.7 | B8
9 | 15.6 | B9
10 | 13.5 | B10
11 | 73.7 | B11
12 | 91.4 | B12
13 | 87.6 | B13
14 | 120 | B14
15 | 4.42 | B15
16 | 101 | B16
17 | 30.7 | B17
18 | 68 | B18
19 | 71.8 | B19
20 | 19.8 | B20
21 | 72.1 | B21
22 | 6.7 | B22
23 | 59.3 | B23
24 | 6.83 | B24
25 | 59.7 | B25

Row | Kd [nM] | Binder
26 | 71.5 | B26
27 | 43.1 | B27
28 | 16.5 | B28
29 | 70 | B29
30 | 59.5 | B30
31 | 20.3 | B31
32 | 4.75 | B32
33 | 77.4 | B33
34 | 29.1 | B34
35 | 8.85 | B35
36 | 90.9 | B36
37 | 66.7 | B37
38 | 60.2 | B38
39 | 9.46 | B39
40 | 71.1 | B40
41 | 43.5 | B41
42 | 74.7 | B42
43 | 10.4 | B43
44 | 98.8 | B44
45 | 69.5 | B45
46 | 9.42 | B46
47 | 5.88 | B47
48 | 76.3 | B48
49 | 47.9 | B49
